The results in this text go back to publication PMC4148589.

In the assay the target is CaV1.1 chimera containing the I–II loop of the CaV2.1 α1A subunit (pc-α1SI–IIA). Put plainly: FRAP.

skeletal muscle β1a subunit, GFP-tagged (pcDNA3-β1a-GFP), sequence (P19517 whole entry): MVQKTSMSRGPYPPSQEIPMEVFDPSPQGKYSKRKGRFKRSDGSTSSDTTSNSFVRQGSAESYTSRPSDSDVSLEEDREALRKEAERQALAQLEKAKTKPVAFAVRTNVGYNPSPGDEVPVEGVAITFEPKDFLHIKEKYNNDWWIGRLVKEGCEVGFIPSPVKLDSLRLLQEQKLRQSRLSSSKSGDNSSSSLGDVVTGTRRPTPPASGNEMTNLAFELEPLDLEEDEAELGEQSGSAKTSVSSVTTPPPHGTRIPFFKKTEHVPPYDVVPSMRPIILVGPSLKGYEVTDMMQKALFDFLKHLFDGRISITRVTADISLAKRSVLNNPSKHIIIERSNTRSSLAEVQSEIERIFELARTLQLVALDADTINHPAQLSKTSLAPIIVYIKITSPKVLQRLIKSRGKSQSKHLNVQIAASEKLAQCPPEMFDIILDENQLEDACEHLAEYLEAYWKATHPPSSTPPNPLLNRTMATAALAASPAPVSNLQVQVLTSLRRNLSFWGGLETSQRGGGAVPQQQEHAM

In turn, “skeletal muscle β1a subunit, GFP-tagged (pcDNA3-β1a-GFP) (from UniProt P19517 1-524) (natural protein)” came in with an R75 (fractional fluorescence recovery 75 s after bleaching) of 20.5%.
